Assay results: patent publication US7700101B2, “Reagents and method for modulating Dkk-mediated interactions” (Wyeth, priority 2001, dated 2010)
Entries after “also recorded” stand apart in the source; their conditions may differ.

Tests used:
LRP5 = biological target: T1, LRP5 (Homo sapiens, UniProt O75197); test: TCF-luciferase assay in HOB-03-CE6 cells, LRP5; type: cell-based
T1 construct: Site-directed mutants of LRP5 were generated in the full-length human LRP5 cDNA; expressed in transfected cells; host or cells: HOB-03-CE6 osteoblastic cells; U2OS osteosarcoma cells; HEK293
T1 sequence (O75197 32-1615): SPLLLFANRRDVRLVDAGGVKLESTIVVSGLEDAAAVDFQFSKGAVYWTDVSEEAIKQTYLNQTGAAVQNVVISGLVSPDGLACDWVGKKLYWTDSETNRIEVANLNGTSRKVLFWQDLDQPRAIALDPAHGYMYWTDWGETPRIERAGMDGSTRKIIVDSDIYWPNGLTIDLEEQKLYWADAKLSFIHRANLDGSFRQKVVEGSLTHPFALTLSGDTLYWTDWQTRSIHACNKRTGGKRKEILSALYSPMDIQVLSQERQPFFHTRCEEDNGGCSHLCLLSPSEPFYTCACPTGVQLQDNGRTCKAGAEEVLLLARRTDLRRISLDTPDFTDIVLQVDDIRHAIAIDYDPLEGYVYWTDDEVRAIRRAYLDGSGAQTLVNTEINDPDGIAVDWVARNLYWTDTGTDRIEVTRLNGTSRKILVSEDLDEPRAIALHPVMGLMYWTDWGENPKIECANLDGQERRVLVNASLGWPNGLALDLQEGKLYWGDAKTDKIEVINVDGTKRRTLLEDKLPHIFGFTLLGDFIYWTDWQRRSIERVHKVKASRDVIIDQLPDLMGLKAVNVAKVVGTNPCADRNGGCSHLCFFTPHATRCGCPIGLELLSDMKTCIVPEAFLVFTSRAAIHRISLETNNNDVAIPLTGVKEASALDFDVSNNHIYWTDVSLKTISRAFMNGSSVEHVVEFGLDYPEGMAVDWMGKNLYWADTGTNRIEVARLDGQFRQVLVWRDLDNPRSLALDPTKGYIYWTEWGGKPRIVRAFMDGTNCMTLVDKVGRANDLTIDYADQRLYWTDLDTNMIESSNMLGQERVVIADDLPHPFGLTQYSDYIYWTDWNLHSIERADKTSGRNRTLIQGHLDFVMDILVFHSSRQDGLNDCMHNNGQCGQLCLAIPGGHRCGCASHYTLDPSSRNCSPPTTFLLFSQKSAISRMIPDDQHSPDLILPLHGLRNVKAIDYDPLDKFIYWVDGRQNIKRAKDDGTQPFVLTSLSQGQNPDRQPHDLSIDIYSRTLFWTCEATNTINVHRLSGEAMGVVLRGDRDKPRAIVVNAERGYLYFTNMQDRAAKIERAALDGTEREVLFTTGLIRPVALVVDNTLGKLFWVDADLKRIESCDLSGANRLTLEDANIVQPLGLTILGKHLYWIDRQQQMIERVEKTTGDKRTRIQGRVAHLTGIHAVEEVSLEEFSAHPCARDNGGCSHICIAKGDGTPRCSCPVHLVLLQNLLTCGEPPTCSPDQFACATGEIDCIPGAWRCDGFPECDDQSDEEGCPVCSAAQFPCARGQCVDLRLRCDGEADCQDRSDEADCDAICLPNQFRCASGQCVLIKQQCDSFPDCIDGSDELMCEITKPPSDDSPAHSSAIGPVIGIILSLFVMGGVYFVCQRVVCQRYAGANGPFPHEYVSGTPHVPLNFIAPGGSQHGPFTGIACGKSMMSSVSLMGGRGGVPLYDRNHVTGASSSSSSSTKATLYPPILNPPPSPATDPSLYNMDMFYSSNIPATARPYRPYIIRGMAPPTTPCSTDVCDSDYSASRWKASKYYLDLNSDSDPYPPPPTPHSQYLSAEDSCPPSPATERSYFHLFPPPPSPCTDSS
Method: HOB-03-CE6 osteoblastic cells developed by Wyeth Ayerst (Philadelphia, Pa.) were seeded into 24-well plates at 150,000 cells per well in 1 ml of the growth media (D-MEM/F12 phenol red-free) containing 10% (v/v) heat-inactivated FBS, 1×penicillin streptomycin, and 1X Glutamax-1, and incubated overnight at 34° C. The following day, the cells were transfected using Lipofectamine 2000® (as described by the manufacturer, Invitrogen) in OptiMEM (Invitrogen) with 0.35 μg/well of LRP5, HBM, or control plasmid DNA (empty vector pcDNA3.1) and either Wnt1 or Wnt3 a plasmid DNA. Similar experiments were performed with LRP6 plasmid DNA (0.35 μg/well) or a control pEDdpc4 empty vector. […] All wells were transfected with 0.025 μg/well of CMV beta-galactosidase plasmid DNA and 0.35 μg/well 16X TCF(ASyluciferase reporter DNA (developed by Ramesh Bhat, Wyeth-Ayerst (Philadelphia, Pa.)). After 4 hours of incubation, the cells were rinsed and 1 ml of fresh growth media was added to each well. The cells were cultured overnight at 34° C., followed by a wash and a change of media. Cells were cultured for an additional 18-24 hours at 37° C. Cells were then lysed with 50 μl/well of 1X lysis buffer. The extracts were assayed for beta-galactosidase activity (Galacto Reaction Buffer Diluent & Light Emission Accelerator, Tropix) using 5 μl extract+50 μl beta-galactosidase diluent and luciferase activity (Luciferase Assay Reagent, Promega) using 20 μl extract.

endogenous LRP5/6 = test: Cell-based TCF reporter high-throughput assay, endogenous LRP5/6; design: species or system human; conditions: U2OS cells, no Wnt3a/Wnt1 transfection, FIG. 21
From the text: To develop a high throughput assay, the TCF-luciferase assay described in Example 7 was modified utilizing low level expression of endogenous LRP5/6 in U2OS and HEK293 cells. […] Using U2OS (human osteosarcoma) and HEK293 (ATCC) cells, the TCF-luciferase and tk-Renilla reporter element constructs were co-transfected along with Wnt3a/1 and Dkk.

HBM = biological target: T2, HBM (Homo sapiens, UniProt O75197, G171V); test: Cell-based TCF reporter high-throughput assay, HBM cDNA; conditions: U2OS cells, Wnt1 or Wnt3a/Wnt1 co-transfected, FIG. 20
T2 construct: Full length Zmax/LRP5 and HBM ORF cDNA; expressed in transfected cells; host or cells: HOB-03-CE6 osteoblastic cells; U2OS osteosarcoma cells; HEK293
T2 sequence (O75197 32-1615 G171V): as the sequence (O75197 32-1615) above, with G140V counted along it
From the text: (§1) To develop a high throughput assay, the TCF-luciferase assay described in Example 7 was modified utilizing low level expression of endogenous LRP5/6 in U2OS and HEK293 cells. However, HOB-03-CE6 cells and any other cells which show a differential response to Dkk depending on whether LRP5, LRP6 or HBM are expressed. Using U2OS (human osteosarcoma) and HEK293 (ATCC) cells, the TCF-luciferase and tk-Renilla reporter element constructs were co-transfected along with Wnt3a/1 and Dkk. Wnt3a alone, by using endogenous LRP5/6, was able to stimulate TCF reporter gene activation. When Dkk, is co-transfected with Wnt3a/Wnt 1 and reporters (TCF-luci and tk-Renilla), DEkk represses reporter element activity. In addition, the TCF-luci signal is activated by Wnt3a/Wnt1 can be repressed by the addition of Dkk-enriched conditioned media to the cells containing Wnt3a/Wnt1 and reporters.
(§2) The Dkk-mediated repression of the reporter is dependent upon the concentration of transfected Dkk cDNA or on the amount of Dkk-conditioned media added. In addition, the Dkk-mediated reporter suppression can be altered by the co-transfection of LRP5, LRP6, and HBM cDNAs in the U2OS or HEK293 cells. In general, U2OS cells show greater sensitivity to Dkk-mediated reporter suppression than that in HEK-293 cells. […]

LRP6 = LRP6 (Homo sapiens, UniProt O75581); test: Cell-based TCF reporter high-throughput assay, LRP6 cDNA; design: Full length LRP6 was isolated from the pED6dpc4 vector; expressed in transfected cells; host or cells: HOB-03-CE6 osteoblastic cells; U2OS osteosarcoma cells; HEK293; conditions: U2OS cells, Wnt1 or Wnt3a/Wnt1 co-transfected, FIG. 20
Sequence of LRP6 (O75581 20-1613): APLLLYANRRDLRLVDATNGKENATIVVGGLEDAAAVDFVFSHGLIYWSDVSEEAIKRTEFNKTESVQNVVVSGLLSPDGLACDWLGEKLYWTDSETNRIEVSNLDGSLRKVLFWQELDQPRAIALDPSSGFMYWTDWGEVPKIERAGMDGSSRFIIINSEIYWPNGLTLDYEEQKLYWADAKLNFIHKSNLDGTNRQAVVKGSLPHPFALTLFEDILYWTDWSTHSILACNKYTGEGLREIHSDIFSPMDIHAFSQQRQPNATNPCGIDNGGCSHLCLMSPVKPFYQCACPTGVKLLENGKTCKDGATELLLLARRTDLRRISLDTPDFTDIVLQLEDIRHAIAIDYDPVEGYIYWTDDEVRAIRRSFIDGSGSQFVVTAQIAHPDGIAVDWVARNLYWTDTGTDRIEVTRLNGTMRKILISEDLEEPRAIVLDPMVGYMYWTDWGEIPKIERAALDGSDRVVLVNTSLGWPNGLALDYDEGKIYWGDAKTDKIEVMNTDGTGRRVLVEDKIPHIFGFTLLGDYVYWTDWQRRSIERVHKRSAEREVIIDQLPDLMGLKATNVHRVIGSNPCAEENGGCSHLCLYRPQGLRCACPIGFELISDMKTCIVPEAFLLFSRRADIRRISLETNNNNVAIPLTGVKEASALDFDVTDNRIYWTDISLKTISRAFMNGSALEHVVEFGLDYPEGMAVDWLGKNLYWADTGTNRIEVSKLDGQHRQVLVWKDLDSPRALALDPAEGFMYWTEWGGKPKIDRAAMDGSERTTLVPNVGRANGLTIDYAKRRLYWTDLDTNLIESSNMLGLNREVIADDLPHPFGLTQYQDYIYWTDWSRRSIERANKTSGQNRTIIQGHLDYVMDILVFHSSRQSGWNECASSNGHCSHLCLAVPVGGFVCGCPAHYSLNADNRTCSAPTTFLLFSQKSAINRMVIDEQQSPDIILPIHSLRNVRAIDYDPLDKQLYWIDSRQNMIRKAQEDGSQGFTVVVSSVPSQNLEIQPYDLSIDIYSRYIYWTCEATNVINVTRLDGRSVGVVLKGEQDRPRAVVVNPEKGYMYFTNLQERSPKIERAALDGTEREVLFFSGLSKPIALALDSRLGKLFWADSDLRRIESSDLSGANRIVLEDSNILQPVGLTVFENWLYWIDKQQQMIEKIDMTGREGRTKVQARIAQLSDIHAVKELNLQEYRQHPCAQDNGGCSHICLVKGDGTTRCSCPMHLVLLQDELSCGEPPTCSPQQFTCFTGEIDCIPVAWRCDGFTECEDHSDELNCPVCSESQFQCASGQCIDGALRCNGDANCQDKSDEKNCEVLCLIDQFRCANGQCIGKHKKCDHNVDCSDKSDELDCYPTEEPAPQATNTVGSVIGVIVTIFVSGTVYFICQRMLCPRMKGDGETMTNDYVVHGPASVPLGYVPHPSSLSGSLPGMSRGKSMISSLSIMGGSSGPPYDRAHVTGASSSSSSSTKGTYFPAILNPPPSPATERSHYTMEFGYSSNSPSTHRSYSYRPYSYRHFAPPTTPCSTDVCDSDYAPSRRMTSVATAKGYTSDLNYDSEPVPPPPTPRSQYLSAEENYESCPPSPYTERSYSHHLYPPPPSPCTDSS
From the text: as §1, §2

LRP5/Wnt3a mediated TCF-luciferase activity (LRP5; Wnt3a, FIG. 15): able to antagonize LRP5/Wnt3a | Dkk-mediated repression of HBM signaling (TCF reporter) (HBM; listed as Dkk1): least | Dkk-mediated repression of LRP6 signaling (TCF reporter) (LRP6): represses | Dkk-mediated repression of LRP6 signaling (TCF reporter) (LRP6; listed as Dkk1): maximal
Substance: Dkk-1: Dickkopf-1 protein, antagonist of the Wnt pathway; expressed from human cDNA (RNA or plasmid)
LRP5/Wnt1 mediated TCF-luciferase activity (LRP5; Wnt1, FIG. 14): significantly antagonized TCF-luciferase activity; also recorded: had no effect on LRP5 or HBM mediated TCF-luciferase activity | modulation of TCF signal without Wnt DNA transfection (endogenous LRP5/6): can be modulated | modulation of TCF signal without Wnt DNA transfection (endogenous LRP5/6; listed as Dkk1): can repress TCF-luci | Dkk-mediated repression of HBM signaling (TCF reporter) (HBM): not efficiently inhibited; also recorded: little or no effect
